Reference: the DeepSol protein solubility set

Assay: soluble on expression in E. coli; label from the status in PepcDB or PDB records

| Sequence | soluble on expression in E. coli |
| --- | --- |
| AHHHHHHGSITLELHPSEIARYFELEECSHYFSNLLLRKRGELQEFEPIIRRKEIETIELAKWGDEFELSLLQEFKKGEALKKLGVKELPRFYGFLTENDTPVRKFFEKYFKDGIIVEEDPDKLLEIINSEKSAVIYQAPLKGRIGKFDVSGRADFIIKVGKTLYLLEAKFTKEEKFYHRIQAIIYAHLLSQMIEGYEIKLAVVTKENFPIPSNFLRFPGDVEELKITLEEKLGGILREQELWIDARCTTCPFEALCLSKALEERSLGLLSLPPGIIRILKEEGIKDLKDMAKLFEFKENSPTNFEEPSIKDPKKTQEIAKRTGINLLKLSRIAQAILKYLDEGETTPLFIPRTGYNLPMDERVGDVEPSYYPPRSLVKVFFYVQTSPITDTIIGISALVKNRQNGERIIVKFVDEPPIEVSDAQEKERMLLIEFFRDVIDAVKSLSPTDKVYLHMYFYNRKQRDDLMDAVKRHKEIRENNAVMALLSLRRAIDWESFSIIKDEIIRRHALPLSPGLGFVTVATQFGYRWRRNKTFARMLEVVARRENGKINLKTLLNISETGIGPEYYPIIDRDNEGIPFTLFWSALVKLATEEDNSRIKRDIRDILSQMVEALKTIEERIPEQYKDAFVKKEGIPKEDLENFDIKKEELADILLEYLQLEFDARFRERSEYYRLPLSIRAYSEESALIKIENIEKKKNDCLLFGKIVLIDENGRIKEYNPKEVLIDIDEGSLVVVTPKKFLDKLRRDPVQRISKSPLGIVEAIDHETGKVVIRLIRVSPGRFTLKHSKFSCKNGLLTITYPEGEVKVTPGEIVIVDPSVDDIGMERAYNVLSEISQGELKHEIYQKVKAIYEGNTESRYEVNIWKKKHIEEFLSRVKKINEEQKKFAIDINNFLVTLQGPPGTGKTSGAIAPAILARAYSMVKDKKNGLFVVTGVSHRAVNEALIKTLKLKKELENTLKELRKIDLIRAVSGEEAIKIIKEELEREIKDDVDRIRFTAQEITHSSKQRSLDKYFANSGTVRIVFGTPQTLNKLMKNTKEVELVVIDEASMMDLPMFFLSTKVCKGQVLLVGDHRQMEPIQVHEWQLEDRKTFEEHYPFLSALNFIRFLRGELDERELKKFKRILGREPPEWKKDKNEVLPLYRLVRTYRLPQEIADLLSDAIYRADGIKLISEKKKRRKIIARHKDEFLSIVLDDRYPFVLILHDEGNSTKINELEAKIVEKIIKRVENIDIGVVVPYRAQKRLIASLIDSAQVDTVERFQGGEKSLIVISMTSSDPRIPGKGF | not soluble |
| MAHHHHHHMYFVIEEWKNVIIKPSQLGPRYQQYIEDMLRNSVEGQCSVKYGYVICVIRIIHSEPGRVQDGTGMIVVKVKYQAIVFKPFKDEVLDAIVTDVNKLGFFAQAGPLKIFISRTAIPKYFEYSEDLHYPCFSSGDYNIKPQTTVRIKLQGIRYDLSNMFAIATINNEYLGCIESNILQVM | not soluble |
| MTTTEVKMFTFNSVAENTYILYDSTGEAALIDCGCMDGSEEQQLLRFVQEQQLTVKLLLNTHLHFDHAWGNGFAAKTFGLPVLTHRAEVEEMPSPSKQLAAFGMFGTMDEPPIQYIAPGDVLQLGESIIKVLFVPGHSPGHLAFYCPQAQAVFTGDALFAGDMGRTDLWGGSYELLKKSIRTELLPLPDDTVVYPGHGPTSTIAYERTNNPFLD | not soluble |
| MLKKIERAQQLLKKEAAVFRCPTCHEPMHLEGVGLICQQRHQFDLSKKGTLYFLNHGVQTEYNKKMFTSRGKMIQSGMYAPVLNKIMHYLPQNKTVVDVGCGEGSFLAELSQAGLSGLKIGFDLSKEGIYLASNQPIDAFWCVADLTNLPFANEGLDTILNIFSPSHYQEFRRVLKADGTVIKIIPEENYLKELRAAFYPNDEKKQSYSNQKVVQRFAEELAVEVDERITYCFDIPEERRLDLLEMSPLEWQVSQEVKAELQQRPLEKITIDVRLLVGRKR | not soluble |
| MGSDKIHHHHHHMDFVAVAVHTEYRCNQGWETRAECHWFVSTIRAIMTATQSISLVGGEGDELLMQRYASGDIQAFDTLYRRHKGGLYRYFLRQIGDSQLAEDLYQETWGRVIKAAPAYEISAKFTTWLYRIAHNLLIDHVRAVKPLNEADTLDEEGMALTDSMTPVRSHEHDLKVQALKHCVGLLPQVQKEAFLLSSEMGFTALMISEIASVSLEATKSRIRYAYQSLKTCVAKRLGEDSDER | not soluble |
| MAHHHHHHSLITIETVLTILKNNANFREIIDGKHYQYKYSNPEVAFHHISYDSRDIKASTLFFVKGATFKKEFLEKAIESGLTFYVAEKDYQVGIPLILVNNIKNAMCLIAKEFYDNPQDKLKTLAFTGTKGKTTAAYFAYHILKQGYRPAMISTMNTTLDGKTFFKSKLTTPESLDLFKMMAQAVANGMTHLIMEVSSQAYLVGRVYGLTFDVGVFLNISPDHIGPIEHPTFEDYFYHKRLLLKHSRYVIVNSQMNHFALIKEQVADQPHDFYGKYSDNQIINSKAFSFDLTGKLAGHYDIQLTGSFNQENAVAAALACLQLGASQTDIQKGIVQTTVPGRMEVLIQKNGAKVFVDYAHNGDSLEKLLSVVEEHQKGTLILILGAPGNKGESRRADFGYVINAHPELQVILTADDPNNEDPQLISQEIAHHIKRPVNIIVDRKQAIQKAMSLTQSENDAVIIAGKGADAFQIIKGKRTAYAGDIEVARKYLEG | soluble |
| MAHHHHHHMPGVLRGKGPTRVFLPQPCNHVGNLKIVWKVKLQIYAVQTNFSRVYGAPSDAQPHVICGTKRISDVHQDIACCRILLNGVIAPPVRLQNQPLVFLTKETGDGVGITHCVECRHVSQHILRLKKNIAVNDDSPLLGAAVTNEIHTKPASSHSSADTQMIGH | not soluble |
| MSLDHPPLCVLLVDDDSLVLDSTTLLLEDLGHRVIRAASGAQALQCLEQHRDIQLMISDMAMPHMDGRQLAEAVRRLHPQLPIILASGYAQRQDGPVPELPRIFKPFSQAQLRDALAQVLAQSAEGHHHHHH | soluble |
| MEKLIAIQQNTIKQETVQTMSSREIAELCGKRHGHVMRDIRKLFSELKIDLSNFAGLYKDSTGRTLPCYHLPKREALIVILGYNTVLRAKIIDYWKKLEEQAANPQIDFSSPEIRAAIMMHLKNKIKQTA | soluble |
| MGSDKIHHHHHHMESSTNPWWVPEDFLAKLQKRVNPEKLAKYGLNDIRQAYFGIYLGIRLDDGSRAPQFLPYKPGFANHIFFLGRSGYGKTSIMRALAEGIYDYFYLNGRKALIIIIEAKYDKTKVKKLMTFREYIIQNFGYDYLLENYPWLENYLQEYSQKRPLLGKIGDFAFGWPNVEGIMTKVDSHHNQFQRHRLQPMIYPSTRIVFRPTRDLSLISRDNGMNVQVVEGKISYERLEVEDLTKFTYVNTQTNYMRILDIYWGQKKIRDPDRFLKEVIRNEYPPRSGETIEDILRSRDRTIANLRTLMNKLKSDRLFTKDPKEEFVKKLTPDRINVIDFSANSRLSDEEEAEIFNILVNYVVNEFALKKDIPVFIIVDEVQNIAKHRLGMAAINKIYREGRSLEISLISGTQYLSGLSKDLVRGATHIGIVGRLASERDAELLEEILDERFDTGEKPRSLQELFRIRKARRGKGKFSIDCEYTFTIEYRVPKTL | not soluble |
| MKRIDLLLNVLDSTFDKESWYAPFKYAIEGLTAEQAMWKPAGETTNTIWENVNHLTYYKERLAANLEGREWTHNLDGNDTFYLTKQSNNDTEWKEVVERSENAQRNLRQVLSAISERELEQNSLEGKLLDIMLHDAYHTGQIIQLRKMQGAWPSKR | not soluble |
| MKFGLFFLNFMNSKRSSDQVIEEMLDTAHYVDQLKFDTLAVYENHFSNNGVVGAPLTVAGFLLGMTKNAKVASLNHVITTHHPVRVAEEACLLDQMSEGRFAFGFSDCEKSADMRFFNRPTDSQFQLFSECHKIINDAFTTGYCHPNNDFYSFPKISVNPHAFTEGGPAQFVNATSKEVVEWAAKLGLPLVFRWDDSNAQRKEYAGLYHEVAQAHGVDVSQVRHKLTLLVNQNVDGEAARAEARVYLEEFVRESYSNTDFEQKMGELLSENAIGTYEESTQAARVAIECCGAADLLMSFESMEDKAQQRAVIDVVNANIVKYHSLEHHHHHH | soluble |
| MGSDKIHHHHHHMERRRWLGAMAGVCPSCGRTLEGSGVRRLCPDCYVERYGVARIPEAVKFVYCRDCGAYRYQGGWNEGLESVEDTLREYLHMVLTVRMKPTEAVEEAWVESIELVQAFAGPGVYTALVTVAGRAGGQSLVERKIITVEASQALCPRCTARSTGRGFEAEVKVRSTAGSLGRDVKTGIARVLRRSRSIAGFVVKVDENREGLDIYLTDQTAARMLAGKLRSEFSAEVKESYKLVGRQPSGRRKGRLTISVRIPEYRPGELISVEGRPHLYLGRSGRGLVTIDLDTGRERVVDTSRTGVLAGVKRYEPGARLRRMMLLSSSGDSMVFLDVDKGMQEVVDAPRGSVRPFVESMEPGRVYEVFIHGGRIYVLRETG | not soluble |
